Data as given in patent US20240233818 (published 2024).

T1: cynomolgus CD137 (cynomolgus monkey)
T1 chain: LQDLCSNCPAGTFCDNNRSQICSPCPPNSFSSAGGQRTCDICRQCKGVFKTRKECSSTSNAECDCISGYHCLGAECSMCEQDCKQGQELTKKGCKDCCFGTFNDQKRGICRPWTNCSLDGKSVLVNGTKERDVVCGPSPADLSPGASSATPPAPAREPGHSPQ

T2: cynomolgus HER2 (cynomolgus monkey)
T2 chain: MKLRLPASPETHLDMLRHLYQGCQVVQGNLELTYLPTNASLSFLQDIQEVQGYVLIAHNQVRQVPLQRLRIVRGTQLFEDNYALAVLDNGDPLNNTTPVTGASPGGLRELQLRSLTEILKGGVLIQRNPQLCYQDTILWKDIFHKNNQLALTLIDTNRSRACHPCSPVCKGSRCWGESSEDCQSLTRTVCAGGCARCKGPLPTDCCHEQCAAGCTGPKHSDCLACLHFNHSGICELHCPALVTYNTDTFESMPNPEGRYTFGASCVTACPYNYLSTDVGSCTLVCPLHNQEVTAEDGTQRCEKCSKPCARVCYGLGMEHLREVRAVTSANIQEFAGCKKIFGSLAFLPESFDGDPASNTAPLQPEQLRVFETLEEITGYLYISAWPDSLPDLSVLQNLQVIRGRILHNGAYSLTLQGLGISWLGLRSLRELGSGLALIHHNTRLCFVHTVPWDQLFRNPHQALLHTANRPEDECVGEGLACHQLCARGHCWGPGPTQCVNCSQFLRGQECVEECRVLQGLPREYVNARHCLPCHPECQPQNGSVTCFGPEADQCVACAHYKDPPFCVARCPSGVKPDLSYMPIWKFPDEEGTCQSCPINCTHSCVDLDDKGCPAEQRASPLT


What was measured:
Assay in all cases: SPR
human CD137 = human CD137 (human, UniProt Q07011)
Sequence of human CD137 (Q07011 24-186): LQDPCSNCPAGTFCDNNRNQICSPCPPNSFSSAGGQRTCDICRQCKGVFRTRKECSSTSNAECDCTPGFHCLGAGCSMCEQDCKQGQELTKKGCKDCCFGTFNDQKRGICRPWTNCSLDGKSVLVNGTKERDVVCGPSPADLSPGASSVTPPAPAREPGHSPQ

cynomolgus CD137 = biological target: T1, cynomolgus CD137
cynomolgus HER2 = biological target: T2, cynomolgus HER2
human HER2 = human HER2 (human, UniProt P04626)

Kd (human CD137) [nM] | Kd (cynomolgus CD137) [nM] | Kd (cynomolgus HER2) [nM] | Kd (human HER2) [nM] | Binder
28 | 40 | – | – | DART-G4 (CD137 arm) (antibody, V domains shown) VH: QVQLVQSGAEVKKPGASVKVSCKASGYTFTSYWINWVKQAPGQGLEWIGNIYPSDSYTNYNQKFKDKATITADKSTSTAYMELSSLRSEDTAVYYCTRDYGSSYSYNVWGQGTTVTVSS VL: DIQMTQSPSSLSASVGDRVTITCRPSQDISNYLNWYQQKPDKTVKLLIYYTSRLRSGVPSRFSGSGSGTDFTFTISSLQPEDIATYFCQQGDTLPYTFGQGTKLEIK
64 | 78 | – | – | DART-G3 (CD137 arm) (antibody, V domains shown) VH: QVQLVQSGAEVKKPGASVKVSCKASGYTFTSYWINWVKQAPGQGLEWIGNIYPSDSYTNYNQKFKDKATITADKSTSTAYMELSSLRSEDTAVYYCTRDYGSAYSYSLWGQGTTVTVSS VL: DIQMTQSPSSLSASVGDRVTITCRPSQDISNYLNWYQQKPDKTVKLLIYYTSRLRSGVPSRFSGSGSGTDFTFTISSLQPEDIATYFCQQGDTLPYTFGQGTKLEIK
114 | 115 | – | – | DART-G (CD137 arm) (antibody, V domains shown) VH: QVQLVQSGAEVKKPGASVKVSCKASGYTFTSYWINWVKQAPGQGLEWIGNIYPSDSYTNYNQKFKDKATITADKSTSTAYMELSSLRSEDTAVYYCTRDYGSSYSFDYWGQGTTVTVSS VL: DIQMTQSPSSLSASVGDRVTITCRPSQDISNYLNWYQQKPDKTVKLLIYYTSRLRSGVPSRFSGSGSGTDFTFTISSLQPEDIATYFCQQGDTLPYTFGQGTKLEIK

The next lines start with the binder.

Binder | Kd (human CD137) [nM] | Kd (cynomolgus CD137) [nM] | Kd (cynomolgus HER2) [nM] | Kd (human HER2) [nM]
DART-G2 (CD137 arm) (antibody, V domains shown) VH: QVQLVQSGAEVKKPGASVKVSCKASGYTFTSYWINWVKQAPGQGLEWIGNIYPSDSYTNYNQKFKDKATITADKSTSTAYMELSSLRSEDTAVYYCTRDYGSAYSMSTWGQGTTVTVSS VL: DIQMTQSPSSLSASVGDRVTITCRPSQDISNYLNWYQQKPDKTVKLLIYYTSRLRSGVPSRFSGSGSGTDFTFTISSLQPEDIATYFCQQGDTLPYTFGQGTKLEIK | 60 | 64 | – | –
DART-B (HER2 arm) (antibody, V domains shown) VH: QVQLVQSGAEVKKPGASVKVSCKASGYTFTNYGMNWVRQAPGQGLEWMGWINTNIGEPTYTEEFKGRVTMTRDTSISTAYMELSRLRSDDTAVYYCARDDGYGNRVSYWGQGTLVTVSS VL: DIQMTQSPSSLSASVGDRVTITCKASQDISNYLSWFQQKPGKAPKTLIYRANRLQSGVPSRFSGSGSGTDFTLTISSLQPEDFATYYCLQHDEFPWTFGQGTKLEIK | – | – | 0.66 | 0.38
DART-D (CD137 arm) (antibody, V domains shown) VH: QVQLQQPGAELVRPGASVKLSCKASGYTFTSYWINWVKQRPGQGLEWIGNIYPSDSYTNYNQKFKDKATLTVDKSSSTAYMQLSSPTSEDSAVYYCTRDYGSSYSFDYWGQGTTLTVSS VL: DIQMTQTTSSLSASLGDRVTISCRPSQDISNYLNWYQQKPDGTVKLLIYYTSRLRSGVPSRFSGSGSGTDYSLTISNLEQEDIATYFCQQGDTLPYTFGGGTKLEIK | 53 | 67 | – | –
